Numbering of substitutions follows the chain as printed.

The labels stand for the following.
B1: D011-7016-LD2 H4/L4 IgG2a (antibody, V domains shown)
VH: QVQLQESGPGLVKPSETLSLTCTVSWDAITSGYWNWVRQPPGNKLEYMGYISYSGSAHYNPSLKSRITISRDTSKNQYSLKLSSVTAADTAVYYCASYSFAYWGQGTLVTVSS
VL: EIVLTQSPDFQSVTPKEKVTITCRASQSIDNQLHWYQQKPDQSPKLLIKYASQSISGVPSRFSGSGSGTDFTLTISSLEAEDAATYFCQQSYGWPYTFGGGTKLEIKR
B2: D011-7016-LD2 H5/L3 IgG2a (antibody, V domains shown)
VH: B1 VH with E16Q, P40H
VL: DIQMTQSPSSLSASVGDRVTITCRASQSIDNQLHWYQQKPGKSPNLLINYASQSISGVPSRFSGSGSGTDFTLTISSLQPEDFATYFCQQSYGWPYTFGGGTKVEIKR
B3: D011-7016-LD2 H1/L1 IgG2a (antibody, V domains shown)
VH: B1 VH with E16Q, P40H, N43K, K44G, V92T
VL: DIVMTQSPPSLSVTPGEPASLSCRASQSIDNQLHWYLQKPGQSPQLLINYASQSISGVTDRFSGSGSGTDFTLKISRVEAEDVGVYFCQQSYGWPYTFGGGTKVEIKR
B4: D011-7016-LD2 H3/L4 IgG2a (antibody, V domains shown)
VH: B1 VH with T23S, K81T, S83T, V85M, V92L
VL: B1 VL
B5: D011-7016-LD2 H3/L2 IgG2a (antibody, V domains shown)
VH: B1 VH with T23S, K81T, S83T, V85M, V92L
VL: B3 VL with P18S, L21I, V85M
B6: D011-7016-LD2 H4/L3 IgG2a (antibody, V domains shown)
VH: B1 VH
VL: B2 VL
B7: D011-7016-LD2 H3/L3 IgG2a (antibody, V domains shown)
VH: B1 VH with T23S, K81T, S83T, V85M, V92L
VL: B2 VL
B8: D011-7016-LD2 H4/L1 IgG2a (antibody, V domains shown)
VH: B1 VH
VL: B3 VL
B9: D011-7016-LD2 H1/L3 IgG2a (antibody, V domains shown)
VH: B1 VH with E16Q, P40H, N43K, K44G, V92T
VL: B2 VL
B10: D011-7016-LD2 H1/L2 IgG2a (antibody, V domains shown)
VH: B1 VH with E16Q, P40H, N43K, K44G, V92T
VL: B3 VL with P18S, L21I, V85M

The target in the first assay is T1, 3A6 mutant FR1.
T1 construct: also called 3A6 FR1; 3A6-FR1 (VH4-34 FR1 mutant)
T1 sequence (VH, as listed by the source, chain 1 of 2): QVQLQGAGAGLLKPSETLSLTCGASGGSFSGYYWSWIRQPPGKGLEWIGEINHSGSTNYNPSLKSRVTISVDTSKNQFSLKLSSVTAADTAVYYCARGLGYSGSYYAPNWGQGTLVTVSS
T1 sequence (VL, as listed by the source, chain 2 of 2): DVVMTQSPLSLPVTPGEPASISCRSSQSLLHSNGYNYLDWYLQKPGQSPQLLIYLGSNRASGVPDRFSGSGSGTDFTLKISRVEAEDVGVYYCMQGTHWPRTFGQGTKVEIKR
Kind of assay: ELISA, human IgG1 antigen captured on anti-human IgG Fc.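 Note: humanized antibodies bound to human IgG1 antigen captured at 1 µg/ml on anti-human IgG Fc plates, detected with anti-mouse IgG Fc/HRP, VSTB112 serving as negative control protein.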
Protocol: (§1) The binding affinity of each humanized antibody for 3A6 antibody (containing VH4-34 antigen), 3A6-FR1 (VH4-34 FR1 mutant) and VSTB112 (negative control protein) was evaluated.
(§2) Plates were coated with 1 ug/ml of anti-human IgG Fc overnight at 4° C. Plates were washed thrice with PBS/0.05% Tween (PBST) before blocking with 5% BSA for 1 h at room temp (RT). Plates were then washed again before addition of 1 μg/ml of 3A6 (VH4-34 antigen), 3A6-FR1 (VH4-34 FR1 mutant) or VSTB112 (negative control protein) human IgG1 proteins. Plates were washed thrice. […] After washing the plates, anti-mouse IgG Fc/HRP diluted 1:5000 in 1% BSA was added and incubated for 1 h at RT. Plates were washed before detection using 1-step ELISA substrate.
In the case of B1, the binding result was “no binding (tested: 1 µg/ml (highest concentration))”.

Consider B2, for which the binding result is on record as “no binding (tested: 1 µg/ml (highest concentration))”.

Consider B3, for which the binding result is on record as “no binding (tested: 1 µg/ml (highest concentration))”.

On to B4, for which the binding result is “no binding (tested: 1 µg/ml (highest concentration))”.

As to B5, the binding result is recorded as “no binding (tested: 1 µg/ml (highest concentration))”.

With B6, the binding result is “no binding (tested: 1 µg/ml (highest concentration))”.

Consider B7, for which the binding result is “no binding (tested: 1 µg/ml (highest concentration))”.

For B8, the binding result is “no binding (tested: 1 µg/ml (highest concentration))”.

In the case of B9, the binding result is reported as “no binding (tested: 1 µg/ml (highest concentration))”.

On to B10, for which the binding result is “no binding (tested: 1 µg/ml (highest concentration))”.

For another assay, the target named is T2, 3A6.
T2 construct: also called 3A6 antibody (containing VH4-34 antigen); 3A6 (VH4-34 antigen)
T2 sequence (VH, as listed by the source, chain 1 of 2): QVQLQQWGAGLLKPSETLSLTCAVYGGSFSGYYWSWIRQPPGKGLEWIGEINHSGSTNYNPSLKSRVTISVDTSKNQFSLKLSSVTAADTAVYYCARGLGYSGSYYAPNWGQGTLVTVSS
T2 sequence (VL, as listed by the source, chain 2 of 2): as the sequence (VL, as listed by the source, chain 2 of 2) above
Described as above.
Protocol: as §1, §2
The molecule B1 gave an EC50 of 0.0365 nM. In other words, the picomolar range.

Turning to B2, the response was half-maximal at 0.282 nM (EC50).

B3 came in with an EC50 of 0.0446 nM.

B4 came in with an EC50 of 0.0627 nM.

Take B5: the response was half-maximal at 0.053 nM (EC50).

For B6, the EC50 was 0.011 nM. Against the preceding molecule, the EC50 is about 4.8-fold lower.

For B7, the EC50 was 0.169 nM.

On to B8, for which the EC50 is 0.0521 nM.

Regarding B9, the midpoint of the response, the EC50, lay at 0.0469 nM. The EC50 values of the last two molecules are within 1.5-fold of each other.

B10: the EC50 amounted to 0.0427 nM. This EC50 and that of the molecule before are within 1.5-fold of each other.

(Values after patent US20260274993A1 (HUMMINGBIRD BIOSCIENCE PTE, published 2026).)
